{"source": "paper PMC5383399", "about": "“Kinesin-4 KIF21B is a potent microtubule pausing factor” (eLife, 2017)", "molecules": {"B1": {"name": "KIF5B-560-GFP (domain or fragment, UniProt P33176 1-560, looked up)", "chain": "MADLAECNIKVMCRFRPLNESEVNRGDKYIAKFQGEDTVVIASKPYAFDRVFQSSTSQEQVYNDCAKKIVKDVLEGYNGTIFAYGQTSSGKTHTMEGKLHDPEGMGIIPRIVQDIFNYIYSMDENLEFHIKVSYFEIYLDKIRDLLDVSKTNLSVHEDKNRVPYVKGCTERFVCSPDEVMDTIDEGKSNRHVAVTNMNEHSSRSHSIFLINVKQENTQTEQKLSGKLYLVDLAGSEKVSKTGAEGAVLDEAKNINKSLSALGNVISALAEGSTYVPYRDSKMTRILQDSLGGNCRTTIVICCSPSSYNESETKSTLLFGQRAKTIKNTVCVNVELTAEQWKKKYEKEKEKNKILRNTIQWLENELNRWRNGETVPIDEQFDKEKANLEAFTVDKDITLTNDKPATAIGVIGNFTDAERRKCEEEIAKLYKQLDDKDEEINQQSQLVEKLKTQMLDQEELLASTRRDQDNMQAELNRLQAENDASKEEVKEVLQALEELAVNYDQKSQEVEDKTKEYELLSDELNQKSATLASIDAELQKLKEMTNHQKKRAAEMMASLLK", "notes": "KIF5B (kinesin-1), residues 1–560; also called N-terminal fragment of kinesin-1, KIF5B residues 1–560; not shown: GFP, C-terminal, kept"}}, "key": {"[1]": {"target": "KIF21B-FL-GFP (full-length KIF21B-GFP) (human)", "assay": "single-molecule fluorescence intensity analysis (TIRF); GFP-tagged motors moving on MTs, compared with single GFP immobilized, or KIF5B-560-GFP moving, in a separate chamber on the same coverslip; 15 µM tubulin, 20 nM mCherry-EB3, MRB80 with 50 mM KCl, 30°C"}, "[2]": {"target": "KIF21B-FL-GFP (full-length KIF21B-GFP) (human)", "assay": "single-molecule fluorescence intensity and photobleaching-step analysis (TIRF); purified GFP fusions diluted in PBS and immobilized on plasma-cleaned coverslips, room temperature; compared with monomeric GFP and dimeric GFP-EB3"}, "[3]": {"target": "KIF21B-FL-ΔrCC-GFP (human)", "assay": "single-molecule fluorescence intensity and photobleaching-step analysis (TIRF); purified GFP fusions diluted in PBS and immobilized on plasma-cleaned coverslips, room temperature; compared with monomeric GFP and dimeric GFP-EB3"}, "[4]": {"target": "KIF21B-MD-CC1-GFP (purified) (human)", "assay": "single-molecule fluorescence intensity analysis (TIRF); GFP-tagged motors moving on MTs, compared with single GFP immobilized, or KIF5B-560-GFP moving, in a separate chamber on the same coverslip; 15 µM tubulin, 20 nM mCherry-EB3, MRB80 with 50 mM KCl, 30°C"}, "[5]": {"target": "KIF21B-MD-CC1-GFP (purified) (human)", "assay": "single-molecule fluorescence intensity and photobleaching-step analysis (TIRF); purified GFP fusions diluted in PBS and immobilized on plasma-cleaned coverslips, room temperature; compared with monomeric GFP and dimeric GFP-EB3"}, "[6]": {"target": "KIF21B-MD-CCΔrCC-GFP (human)", "assay": "single-molecule fluorescence intensity and photobleaching-step analysis (TIRF); purified GFP fusions diluted in PBS and immobilized on plasma-cleaned coverslips, room temperature; compared with monomeric GFP and dimeric GFP-EB3"}, "[7]": {"target": "the molecule itself", "assay": "single-molecule fluorescence intensity analysis (TIRF); GFP-tagged motors moving on MTs, compared with single GFP immobilized, or KIF5B-560-GFP moving, in a separate chamber on the same coverslip; 15 µM tubulin, 20 nM mCherry-EB3, MRB80 with 50 mM KCl, 30°C"}}, "data": [{"molecule": "KIF21B-FL-GFP (full-length KIF21B-GFP) (natural protein)", "values": [{"measurement": "stoichiometry N", "setting": "[1]", "value": 2}, {"measurement": "stoichiometry N", "setting": "[2]", "value": 2}]}, {"molecule": "KIF21B-FL-ΔrCC-GFP (natural protein)", "values": [{"measurement": "stoichiometry N", "setting": "[3]", "value": 2}]}, {"molecule": "KIF21B-MD-CC1-GFP (purified) (domain or fragment)", "values": [{"measurement": "fluorescence intensity relative to single monomeric GFP", "setting": "[4]", "value": 1.8, "unit": "fold"}, {"measurement": "stoichiometry N", "setting": "[5]", "value": 2}]}, {"molecule": "KIF21B-MD-CCΔrCC-GFP (domain or fragment)", "values": [{"measurement": "stoichiometry N", "setting": "[6]", "value": 2}]}, {"molecule": "B1", "values": [{"measurement": "fluorescence intensity relative to single monomeric GFP", "setting": "[7]", "value": "~1.8", "unit": "fold"}, {"measurement": "stoichiometry N", "setting": "[7]", "value": 2}]}]}
